Measured values reported in patent US20210102195A1 (TWIST BIOSCIENCE, published 2021).

B1: TIGIT-55-06 (antibody, V domains shown)
VH: EVQLLESGGGLVQPGGSLRLSCAASGFTFSRYTMNWVRQAPGKGLEWVSGISGSGGGAYYADSVKGRFTISRDNSKNTLYLQMNSLRAEDTAVYYCARNSYGPPRSFGMDVWGQGTLVTVSS
VL: DIQMTQSPSSLSASVGDRVTITCRASQSISKYLNWYQQKPGKAPKLLIYGASSLRGGVPSRFSGSGSGTDFTLTISSLQPEDFATYYCQQSYRPPLTFGGGTKVEIK
notes: hTIGIT IgG
B2: TIGIT-55-07 (antibody, V domains shown)
VH: EVQLLESGGGLVQPGGSLRLSCAASGFTFSSYGMTWVRQAPGKGLEWVSAISGRGSSTYYADSVKGRFTISRDNSKNTLYLQMNSLRAEDTAVYYCARTPYRSGWADYWGQGTLVTVSS
VL: DIQMTQSPSSLSASVGDRVTITCRASQNIKTYLNWYQQKPGKAPKLLIYAASSLHTGVPSRFSGSGSGTDFTLTISSLQPEDFATYYCQQTYSIPQTFGGGTKVEIK
notes: hTIGIT IgG
B3: TIGIT-55-08 (antibody, V domains shown)
VH: EVQLLESGGGLVQPGGSLRLSCAASGFMFSDYAMSWVRQAPGKGLEWVSGISGSGGYTYYADSVKGRFTISRDNSKNTLYLQMNSLRAEDTAVYYCTRSWYYYYGMDVWGQGTLVTVSS
VL: DIQMTQSPSSLSASVGDRVTITCRAGQSIRSYLNWYQQKPGKAPKLLIYASSNLQSGVPSRFSGSGSGTDFTLTISSLQPEDFATYYCQQSYSTPLLTFGGGTKVEIK
notes: hTIGIT IgG
B4: TIGIT-55-11 (antibody, V domains shown)
VH: EVQLLESGGGLVQPGGSLRLSCAASGFTFTNYGMSWVRQAPGKGLEWVSSISGSGSTTYYADSVKGRFTISRDNSKNTLYLQMNSLRAEDTAVYYCASVKRWGYYFNWWGQGTLVTVSS
VL: DIQMTQSPSSLSASVGDRVTITCRASQNINYYLNWYQQKPGKAPKLLIYGASSLQNGVPSRFSGSGSGTDFTLTISSLQPEDFATYYCQQSYITPYTGGGTKVEIK
notes: hTIGIT IgG
B5: TIGIT-55-12 (antibody, V domains shown)
VH: EVQLLESGGGLVQPGGSLRLSCAASGFTLSSYAMAWVRQAPGKGLEWVSTLSGSGGSTYYADSVKGRFTISRDNSKNTLYLQMNSLRAEDTAVYYCARVRVGAYDAFDIWGQGTLVTVSS
VL: DIQMTQSPYSLSASVGDRVTITCRASQSIRRYLNWYQQKPGKAPKLLIYRASTLQTGVPSRFSGSGSGTDFTLTISSLQPEDFATYYCQQTYSSPFTFGGGTKVEIK
notes: hTIGIT IgG
B6: TIGIT-55-13 (antibody, V domains shown)
VH: EVQLLESGGGLVQPGGSLRLSCAASGFTFSTYGMNWVRQAPGKGLEWVSTISGSGGSTYFADSVKGRFTISRDNSKNTLYLQMNSLRAEDTAVYYCARNSGWFMPFDYWGQGTLVTVSS
VL: DIQMTQSPSSLSASVGDRVTITCRTSQSISTYLNWYQQKPGKAPKLLIYATSRLQSGVPSRFSGSGSGTDFTLTISSLQPEDFATYYCQQSYTTPLTFGGGTKVEIK
notes: hTIGIT IgG
B7: TIGIT-55-14 (antibody, V domains shown)
VH: EVQLLESGGGLVQPGGSLRLSCAASGFMFSRYAMSWVRQAPGKGLEWVSSISGSGGTTYYADSVKGRFTISRDNSKNTLYLQMNSLRAEDTAVYYCARRGSGWYIDSWGQGTLVTVSS
VL: DIQMTQSPSSLSASVGDRVTITCRASQSVSRYLNWYQQKPGKAPKLLIYGSSNLQSGVPSRFSGSGSGTDFTLTISSLQPEDFATYYCQESYSTPFTFGGGTKVEIK
notes: hTIGIT IgG

Molecular target: T1, human TIGIT (human, UniProt Q495A1 22-141, limits assumed)
T1 construct: also called hTIGIT
T1 sequence (looked up): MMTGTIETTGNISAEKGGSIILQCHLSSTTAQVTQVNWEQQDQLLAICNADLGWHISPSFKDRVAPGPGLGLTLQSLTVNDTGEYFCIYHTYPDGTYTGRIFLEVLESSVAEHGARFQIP
Experiment: monovalent affinity of the hTIGIT IgGs; method not named in Example 14

First: B1
Second: B2
The Kd of the first is 1.5-fold lower: 153 nM for the first, 231 nM for the second.

First: B3
Second: B4
The Kd of the first is 2.9-fold lower: 113 nM for the first, 327 nM for the second.

B5 and B6 are within 1.5-fold of each other in Kd: 148 nM for the first, 112 nM for the second.

With B7 the Kd was 139 nM.
